Measurements: patent US20210388087A1 (Chugai, published 2021)
Changes are numbered by the printed parent chain.

B1: H183/L072 VL L27bK (antibody, name in Kabat numbering, V domains shown)
VH: QVQLVESGGGLVQPGRSLRLSCAASGFTFSNAWMHWVRQAPGKGLEWVAQIKDKGNAYAAYYAPSVKGRFTISRDDSKNSIYLQMNSLKTEDTAVYYCHYVHYASASTVLPAFGVDAWGQGTTVTVSS
VL: DIVMTQSPLSLPVTPGEPASISCQASQEKVHMNRNTYLHWYQQKPGQAPRLLIYKVSNRFPGVPDRFSGSGSGTDFTLKISRVEAEDVGVYYCAQGTSVPFTFGQGTKLEIK
notes: Dual-Ig
B2: H183/L072 VL L27bW (antibody, name in Kabat numbering, V domains shown)
VH: B1 VH
VL: B1 VL with K29W
notes: Dual-Ig
B3: H183/L072 VL M27eK (antibody, name in Kabat numbering, V domains shown)
VH: B1 VH
VL: B1 VL with K29L, M32K
notes: Dual-Ig
B4: H183/L072 VL M27eA (antibody, name in Kabat numbering, V domains shown)
VH: B1 VH
VL: B1 VL with K29L, M32A
notes: Dual-Ig
B5: H183/L072 VL L33I (antibody, name in Kabat numbering, V domains shown)
VH: B1 VH
VL: B1 VL with K29L, L38I
notes: Dual-Ig
B6: H183/L072 VL L33N (antibody, name in Kabat numbering, V domains shown)
VH: B1 VH
VL: B1 VL with K29L, L38N
notes: Dual-Ig
B7: H183/L072 VL L33W (antibody, name in Kabat numbering, V domains shown)
VH: B1 VH
VL: B1 VL with K29L, L38W
notes: Dual-Ig
B8: H183/L072 VL L33V (antibody, name in Kabat numbering, V domains shown)
VH: B1 VH
VL: B1 VL with K29L, L38V
notes: Dual-Ig
B9: H183/L072 VL L33Y (antibody, name in Kabat numbering, V domains shown)
VH: B1 VH
VL: B1 VL with K29L, L38Y
notes: Dual-Ig
B10: H183/L072 VL L33F (antibody, name in Kabat numbering, V domains shown)
VH: B1 VH
VL: B1 VL with K29L, L38F
notes: Dual-Ig
B11: H183/L072 VL M27eE (antibody, name in Kabat numbering, V domains shown)
VH: B1 VH
VL: B1 VL with K29L, M32E
notes: Dual-Ig
B12: H183/L072 VL L33Q (antibody, name in Kabat numbering, V domains shown)
VH: B1 VH
VL: B1 VL with K29L, L38Q
notes: Dual-Ig
B13: H183/L072 VL L33A (antibody, name in Kabat numbering, V domains shown)
VH: B1 VH
VL: B1 VL with K29L, L38A
notes: Dual-Ig
B14: H183/L072 VL L27bS (antibody, name in Kabat numbering, V domains shown)
VH: B1 VH
VL: B1 VL with K29S
notes: Dual-Ig
B15: H183/L072 VL L33H (antibody, name in Kabat numbering, V domains shown)
VH: B1 VH
VL: B1 VL with K29L, L38H
notes: Dual-Ig
B16: H183/L072 VL L33P (antibody, name in Kabat numbering, V domains shown)
VH: B1 VH
VL: B1 VL with K29L, L38P
notes: Dual-Ig
B17: H183/L072 VL L27bM (antibody, name in Kabat numbering, V domains shown)
VH: B1 VH
VL: B1 VL with K29M
notes: Dual-Ig
B18: H183/L072 VL M27eH (antibody, name in Kabat numbering, V domains shown)
VH: B1 VH
VL: B1 VL with K29L, M32H
notes: Dual-Ig
B19: H183/L072 VL L33T (antibody, name in Kabat numbering, V domains shown)
VH: B1 VH
VL: B1 VL with K29L, L38T
notes: Dual-Ig
B20: H183/L072 VL L33M (antibody, name in Kabat numbering, V domains shown)
VH: B1 VH
VL: B1 VL with K29L, L38M
notes: Dual-Ig
B21: H183/L072 VL L27bP (antibody, name in Kabat numbering, V domains shown)
VH: B1 VH
VL: B1 VL with K29P
notes: Dual-Ig
B22: H183/L072 VL M27eD (antibody, name in Kabat numbering, V domains shown)
VH: B1 VH
VL: B1 VL with K29L, M32D
notes: Dual-Ig
B23: H183/L072 VL L27bQ (antibody, name in Kabat numbering, V domains shown)
VH: B1 VH
VL: B1 VL with K29Q
notes: Dual-Ig
B24: H183/L072 VL M27eG (antibody, name in Kabat numbering, V domains shown)
VH: B1 VH
VL: B1 VL with K29L, M32G
notes: Dual-Ig
B25: H183/L072 VL M27eF (antibody, name in Kabat numbering, V domains shown)
VH: B1 VH
VL: B1 VL with K29L, M32F
notes: Dual-Ig
B26: H183/L072 VL L33G (antibody, name in Kabat numbering, V domains shown)
VH: B1 VH
VL: B1 VL with K29L, L38G
notes: Dual-Ig
B27: H183/L072 VL L33E (antibody, name in Kabat numbering, V domains shown)
VH: B1 VH
VL: B1 VL with K29L, L38E
notes: Dual-Ig
B28: H183/L072 VL L27bV (antibody, name in Kabat numbering, V domains shown)
VH: B1 VH
VL: B1 VL with K29V
notes: Dual-Ig
B29: H183/L072 VL L27bT (antibody, name in Kabat numbering, V domains shown)
VH: B1 VH
VL: B1 VL with K29T
notes: Dual-Ig
B30: H183/L072 VL M27eI (antibody, name in Kabat numbering, V domains shown)
VH: B1 VH
VL: B1 VL with K29L, M32I
notes: Dual-Ig
B31: H183/L072 VL M27eL (antibody, name in Kabat numbering, V domains shown)
VH: B1 VH
VL: B1 VL with K29L, M32L
notes: Dual-Ig

Target: T1, Human CD137 ECD (human)
T1 construct: entry includes C-terminal His-tag and biotin acceptor peptide; also called human CD137 extracellular domain; 4-1BB
Assay: Biacore SPR, vs parent H183/L072

T1 sequence (chain, as listed by the source limits assumed): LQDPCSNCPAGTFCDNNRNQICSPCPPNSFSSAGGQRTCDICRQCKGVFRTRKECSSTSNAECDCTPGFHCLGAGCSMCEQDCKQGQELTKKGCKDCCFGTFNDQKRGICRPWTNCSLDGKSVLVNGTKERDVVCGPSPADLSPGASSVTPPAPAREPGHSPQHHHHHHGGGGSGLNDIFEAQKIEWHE

Binder | fold change of affinity
B1 | 0.3 fold
B2 | 0.3 fold
B3 | 1.1 fold
B4 | 1 fold
B5 | 0.1 fold
B6 | 0.1 fold
B7 | 0.1 fold
B8 | 0.6 fold
B9 | 0.1 fold
B10 | 0.3 fold
B11 | 0.9 fold
B12 | 1.4 fold
B13 | 0.9 fold
B14 | 0.3 fold
B15 | 0.9 fold
B16 | 0.2 fold

Binder | fold change of affinity
B17 | 0.4 fold
B18 | 0.8 fold
B19 | 0.2 fold
B20 | 0.9 fold
B21 | 0.8 fold
B22 | 0.7 fold
B23 | 0.2 fold
B24 | 0.7 fold
B25 | 0.7 fold
B26 | 0.1 fold
B27 | 0.1 fold
B28 | 1.1 fold
B29 | 0.4 fold
B30 | 0.9 fold
B31 | 0.8 fold
